Substrate in the data set: CCCOC(=O)c1cc(O)c(O)c(O)c1
Kind of data set: purified protein. Type of data set: biochemical, Aspergillus niger. Particulars: standard assay condition.

This passage reports Km and kcat results from publication PMC7070470, “Thermostable Tannase from Aspergillus Niger and Its Application in the Enzymatic Extraction of Green Tea” (Molecules, 2020).

B1: rAntan1 (tannase from A. niger FJ0118, Antan1 without signal peptide) (Aspergillus niger CBS 513.88) (protein)
chain: ATPSTLAELCTDSIVKAALPPSEFIQGITIDSDSVTTEVVTNSSVSSEFYPSATINYCNVTFAYSHDGIDGDQVLLEIWLPAPTDFQNRWLSTGGGGYAINSGDQSLPGGVMYGAASGMTDGGFGGFSNNADTAMLLANGTLDYETLYMFAYKAHRELSLIGKALTRNVYGMSDSDKLYAYYQGCSEGGREGWSQVQRFGDEWDGAIIGAPAFRWSFQQTQHLYSNVVEKTLDYYPPPCELDKIVNETIAACDAMDGKVDWVVARTDLCLLDFDISTIEGKPYSCAASRGTPAQNGTVSAKGIEVAKTIINGLHDSQGRRVYFSYQPTAAFDDAETQYNSTTGQWGLDIDQLGGEYIALLVDKNGTTLDSLDGVTYDTLKDWMISGLQEYYSTLQTTWPDLTPFHEAGGKVIHFHGDADFSIPTAASIRYWESVRSIMYPNQDYNSSAEALNEWYRLYTVPGAGHCATNDAMPNGPFPQTNMAVMIDWVENGVVPTTLNATVLQGENEGQNQQLCAWPLRPLWTNNGTTMECVYNQRSIDSWHYDLDAVPMPVY
notes: mature form, predicted 20-residue signal peptide removed; secreted from Pichia pastoris SMD1168 (pPIC9K), DEAE-Sepharose purified; 1725 bp ORF, 575 residues printed
In the case of B1, the Km was 73 µM. For the same protein, the kcat (substrate range printed as 0.05–1.0 M) is 1060 s⁻¹.

As usually defined, the Km is the concentration of substrate that gives half-maximal velocity. Usually kcat stands for the number of substrate molecules converted per active site and unit of time at saturation.
